Measured values published in patent US20240425612A1.

Key:
[1] = target: hFcγRIIIa-158V-streptavidin-His (human) (UniProt P08637); assay: BLI
[2] = target: hFcγRIIIa-158F-streptavidin-His (human) (UniProt P08637); assay: BLI
Chain of hFcγRIIIa-158F-streptavidin-His (human) (P08637 17-208): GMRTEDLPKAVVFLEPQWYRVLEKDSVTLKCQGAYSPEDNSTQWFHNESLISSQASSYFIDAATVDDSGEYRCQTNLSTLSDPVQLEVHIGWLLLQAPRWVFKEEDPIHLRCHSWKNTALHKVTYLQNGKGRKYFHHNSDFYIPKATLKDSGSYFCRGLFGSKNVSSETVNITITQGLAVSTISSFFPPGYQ

Chain of hFcγRIIIa-158V-streptavidin-His (human) (P08637 17-208 F176V): as the sequence (P08637 17-208) above, with F160V counted along it

With “Trastuzumab-DE (S239D/I332E) from Xencor” the Kd [1] was 46.5 nM and the Kd [2] was 67.3 nM.
